In publication PMC11633381, “Acarbose impairs gut Bacteroides growth by targeting intracellular glucosidases” (mBio, 2024):

Molecular target: BoGH13BSus (BoSusA), periplasmic GH13 neopullulanase of the Bacteroides ovatus Sus (Bacteroides ovatus)
Experiment: SEC; 0.5 mL of 10.6 mg/mL BoSusA or 8.2 mg/mL SusA on HiPrep 16/60 Sephacryl S-200 HR, 20 mM HEPES, 100 mM NaCl, pH 7.0, 0.5 mL/min; compared with BioRad gel filtration standards

BoGH13BSus (BoSusA), periplasmic GH13 neopullulanase of the Bacteroides ovatus Sus (enzyme)
stoichiometry N: 2
